Laboratory results from patent US20110118447A1.

Target: binding partner of C5A (XPA23)
Test: Biacore K-off

Row | Binder | fold difference in affinity vs original
1 | C5A (XPA23) VL Q27D (antibody, V domains shown) VH: EVQLLESGGGLVQPGGSLRLSCAASGFTFSKYFMFWVRQAPGKGLEWVSVISPSGGMTRYADSVKGRFTISRDNSKNTLYLQMNSLRAEDTAVYYCARVGYGGNSDYWGQGTLVTVSS VL: DIQMTQSPSSVSASVGDRLTIICRASDDINRWLAWYQQTPGNAPKLLIHSATSLQSGVPSRFSGSGSGTDFTLTINSLQPEDFATYYCQQADSFPLTFGGGTKVEIK | 1.07 fold
2 | C5A (XPA23) VL D28R (antibody, V domains shown) VH: EVQLLESGGGLVQPGGSLRLSCAASGFTFSKYFMFWVRQAPGKGLEWVSVISPSGGMTRYADSVKGRFTISRDNSKNTLYLQMNSLRAEDTAVYYCARVGYGGNSDYWGQGTLVTVSS VL: DIQMTQSPSSVSASVGDRLTIICRASQRINRWLAWYQQTPGNAPKLLIHSATSLQSGVPSRFSGSGSGTDFTLTINSLQPEDFATYYCQQADSFPLTFGGGTKVEIK | 0.94 fold
3 | C5A (XPA23) VL Q27R (antibody, V domains shown) VH: EVQLLESGGGLVQPGGSLRLSCAASGFTFSKYFMFWVRQAPGKGLEWVSVISPSGGMTRYADSVKGRFTISRDNSKNTLYLQMNSLRAEDTAVYYCARVGYGGNSDYWGQGTLVTVSS VL: DIQMTQSPSSVSASVGDRLTIICRASRDINRWLAWYQQTPGNAPKLLIHSATSLQSGVPSRFSGSGSGTDFTLTINSLQPEDFATYYCQQADSFPLTFGGGTKVEIK | 0.89 fold
4 | C5A (XPA23) VL D28K (antibody, V domains shown) VH: EVQLLESGGGLVQPGGSLRLSCAASGFTFSKYFMFWVRQAPGKGLEWVSVISPSGGMTRYADSVKGRFTISRDNSKNTLYLQMNSLRAEDTAVYYCARVGYGGNSDYWGQGTLVTVSS VL: DIQMTQSPSSVSASVGDRLTIICRASQKINRWLAWYQQTPGNAPKLLIHSATSLQSGVPSRFSGSGSGTDFTLTINSLQPEDFATYYCQQADSFPLTFGGGTKVEIK | 0.82 fold
5 | C5A (XPA23) VL Q27H (antibody, V domains shown) VH: EVQLLESGGGLVQPGGSLRLSCAASGFTFSKYFMFWVRQAPGKGLEWVSVISPSGGMTRYADSVKGRFTISRDNSKNTLYLQMNSLRAEDTAVYYCARVGYGGNSDYWGQGTLVTVSS VL: DIQMTQSPSSVSASVGDRLTIICRASHDINRWLAWYQQTPGNAPKLLIHSATSLQSGVPSRFSGSGSGTDFTLTINSLQPEDFATYYCQQADSFPLTFGGGTKVEIK | 1.09 fold
6 | C5A (XPA23) VL D28N (antibody, V domains shown) VH: EVQLLESGGGLVQPGGSLRLSCAASGFTFSKYFMFWVRQAPGKGLEWVSVISPSGGMTRYADSVKGRFTISRDNSKNTLYLQMNSLRAEDTAVYYCARVGYGGNSDYWGQGTLVTVSS VL: DIQMTQSPSSVSASVGDRLTIICRASQNINRWLAWYQQTPGNAPKLLIHSATSLQSGVPSRFSGSGSGTDFTLTINSLQPEDFATYYCQQADSFPLTFGGGTKVEIK | 1 fold
7 | C5A (XPA23) VL D28T (antibody, V domains shown) VH: EVQLLESGGGLVQPGGSLRLSCAASGFTFSKYFMFWVRQAPGKGLEWVSVISPSGGMTRYADSVKGRFTISRDNSKNTLYLQMNSLRAEDTAVYYCARVGYGGNSDYWGQGTLVTVSS VL: DIQMTQSPSSVSASVGDRLTIICRASQTINRWLAWYQQTPGNAPKLLIHSATSLQSGVPSRFSGSGSGTDFTLTINSLQPEDFATYYCQQADSFPLTFGGGTKVEIK | 1.19 fold
8 | C5A (XPA23) VL N30D (antibody, V domains shown) VH: EVQLLESGGGLVQPGGSLRLSCAASGFTFSKYFMFWVRQAPGKGLEWVSVISPSGGMTRYADSVKGRFTISRDNSKNTLYLQMNSLRAEDTAVYYCARVGYGGNSDYWGQGTLVTVSS VL: DIQMTQSPSSVSASVGDRLTIICRASQDIDRWLAWYQQTPGNAPKLLIHSATSLQSGVPSRFSGSGSGTDFTLTINSLQPEDFATYYCQQADSFPLTFGGGTKVEIK | 0.81 fold
9 | C5A (XPA23) VL D28E (antibody, V domains shown) VH: EVQLLESGGGLVQPGGSLRLSCAASGFTFSKYFMFWVRQAPGKGLEWVSVISPSGGMTRYADSVKGRFTISRDNSKNTLYLQMNSLRAEDTAVYYCARVGYGGNSDYWGQGTLVTVSS VL: DIQMTQSPSSVSASVGDRLTIICRASQEINRWLAWYQQTPGNAPKLLIHSATSLQSGVPSRFSGSGSGTDFTLTINSLQPEDFATYYCQQADSFPLTFGGGTKVEIK | 0.74 fold
10 | C5A (XPA23) VL Q27E (antibody, V domains shown) VH: EVQLLESGGGLVQPGGSLRLSCAASGFTFSKYFMFWVRQAPGKGLEWVSVISPSGGMTRYADSVKGRFTISRDNSKNTLYLQMNSLRAEDTAVYYCARVGYGGNSDYWGQGTLVTVSS VL: DIQMTQSPSSVSASVGDRLTIICRASEDINRWLAWYQQTPGNAPKLLIHSATSLQSGVPSRFSGSGSGTDFTLTINSLQPEDFATYYCQQADSFPLTFGGGTKVEIK | 1.08 fold
11 | C5A (XPA23) VL Q27T (antibody, V domains shown) VH: EVQLLESGGGLVQPGGSLRLSCAASGFTFSKYFMFWVRQAPGKGLEWVSVISPSGGMTRYADSVKGRFTISRDNSKNTLYLQMNSLRAEDTAVYYCARVGYGGNSDYWGQGTLVTVSS VL: DIQMTQSPSSVSASVGDRLTIICRASTDINRWLAWYQQTPGNAPKLLIHSATSLQSGVPSRFSGSGSGTDFTLTINSLQPEDFATYYCQQADSFPLTFGGGTKVEIK | 0.64 fold
12 | C5A (XPA23) VL D28S (antibody, V domains shown) VH: EVQLLESGGGLVQPGGSLRLSCAASGFTFSKYFMFWVRQAPGKGLEWVSVISPSGGMTRYADSVKGRFTISRDNSKNTLYLQMNSLRAEDTAVYYCARVGYGGNSDYWGQGTLVTVSS VL: DIQMTQSPSSVSASVGDRLTIICRASQSINRWLAWYQQTPGNAPKLLIHSATSLQSGVPSRFSGSGSGTDFTLTINSLQPEDFATYYCQQADSFPLTFGGGTKVEIK | 5.25 fold
13 | C5A (XPA23) VL D28H (antibody, V domains shown) VH: EVQLLESGGGLVQPGGSLRLSCAASGFTFSKYFMFWVRQAPGKGLEWVSVISPSGGMTRYADSVKGRFTISRDNSKNTLYLQMNSLRAEDTAVYYCARVGYGGNSDYWGQGTLVTVSS VL: DIQMTQSPSSVSASVGDRLTIICRASQHINRWLAWYQQTPGNAPKLLIHSATSLQSGVPSRFSGSGSGTDFTLTINSLQPEDFATYYCQQADSFPLTFGGGTKVEIK | 1.23 fold
14 | C5A (XPA23) VL D28Y (antibody, V domains shown) VH: EVQLLESGGGLVQPGGSLRLSCAASGFTFSKYFMFWVRQAPGKGLEWVSVISPSGGMTRYADSVKGRFTISRDNSKNTLYLQMNSLRAEDTAVYYCARVGYGGNSDYWGQGTLVTVSS VL: DIQMTQSPSSVSASVGDRLTIICRASQYINRWLAWYQQTPGNAPKLLIHSATSLQSGVPSRFSGSGSGTDFTLTINSLQPEDFATYYCQQADSFPLTFGGGTKVEIK | 1.45 fold
15 | C5A (XPA23) VL Q27S (antibody, V domains shown) VH: EVQLLESGGGLVQPGGSLRLSCAASGFTFSKYFMFWVRQAPGKGLEWVSVISPSGGMTRYADSVKGRFTISRDNSKNTLYLQMNSLRAEDTAVYYCARVGYGGNSDYWGQGTLVTVSS VL: DIQMTQSPSSVSASVGDRLTIICRASSDINRWLAWYQQTPGNAPKLLIHSATSLQSGVPSRFSGSGSGTDFTLTINSLQPEDFATYYCQQADSFPLTFGGGTKVEIK | 3.3 fold
